According to CN117396506A (NOVARTIS AG, dated 2024):

B1: mAb2 (antibody, human IgG1, kappa, V domains shown)
VH: QVQLVESGGGVVQPGRSLRLSCAASGFTFSVYGMNWVRQAPGKGLEWVAIIWYDGDNQYYADSVKGRFTISRDNSKNTLYLQMNGLRAEDTAVYYCARDLRTGPFDYWGQGTLVTVSS
VL: EIVLTQSPDFQSVTPKEKVTITCRASQSIGSSLHWYQQKPDQSPKLLIKYASQSFSGVPSRFSGSGSGTDFTLTINSLEAEDAAAYYCHQSSSLPFTFGPGTKVDIKR
notes: Human anti-IL-1β antibody, bivalent mAb; also called IL-1β抗体mAb2
B2: mAb1 (antibody, human IgG1, lambda, L234A L235A, V domains shown)
VH: EVQLVQSGAEVKKPGSSVKVSCKASGGTFKSYAISWVRQAPGQGLEWMGNIIPMTGQTYYAQKFQGRVTITADESTSTAYMELSSLRSEDTAVYYCARAAYHPLVFDNWGQGTLVTVSS
VL: DIVLTQPPSVSGAPGQRVTISCSGSSSNIGNHYVNWYQQLPGTAPKLLIYRNNHRPSGVPDRFSGSKSGTSASLAITGLQSEDEADYYCQSWDYSGFSTVFGGGTKLTVLG
notes: Human anti-IL-18 antibody, bivalent mAb; also called IL-18抗体mAb1

Tests used:
重组人IL-1β = target: T1, 重组人IL-1β (human, UniProt P01584 117-269); experiment: solution equilibrium titration (SET), single-target binding assay, MSD ECL read-out; mean KD
T1 construct: In the LPS/IL-12 assays the IL-1β is the native cytokine made by the blood cells; also called huIL-1β; IL-1b

重组人IL-18 = target: T2, 重组人IL-18 (human, UniProt Q14116 37-193); experiment: SET, single-target binding assay
T2 construct: In the LPS/IL-12 assays the IL-18 is the native cytokine made by the blood cells; also called huIL-18; human IL-18

Binder | Kd (重组人IL-1β) [pM] | binding result (重组人IL-18)
B1 | 0.6 | –
B2 | – | binds
